Where a chain is given by its changes, count along the chain named.
T1: FSTL1 (Homo sapiens, UniProt Q12841)
T1 sequence (Q12841 21-308): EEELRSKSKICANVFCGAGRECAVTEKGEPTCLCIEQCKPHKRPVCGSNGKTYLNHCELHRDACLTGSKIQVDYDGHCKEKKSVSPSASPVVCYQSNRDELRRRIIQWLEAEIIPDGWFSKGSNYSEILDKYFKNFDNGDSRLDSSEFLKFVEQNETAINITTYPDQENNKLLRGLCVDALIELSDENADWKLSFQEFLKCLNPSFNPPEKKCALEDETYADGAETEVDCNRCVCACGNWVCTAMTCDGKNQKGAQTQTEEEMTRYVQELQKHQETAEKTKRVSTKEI

B1: #6-55: chicken-mouse chimeric anti-FSTL1 antibody clone; variable regions SEQ ID NO: 783 (light), 785 (heavy) (antibody, V domains shown)
VH: AVTLDESGGGLQTPGGALSLVCKGSGFTFTSVTMQWVRQAPGKGLEWVASVCSGSSTYYAPAVKGRATISRDNGQSTVRLQLSNLRPEDTGTYYCAKIAGRARWSCTSAAYNIDAWGHGTEVIVSS
VL: ASTQPSSVSAIPGETVKITCSGGGNNYGWYQQRSPGSAPVTVIYYNDNRPSNIPSRFSGSTSGSTSTLTITGVQADDEAIYYCGSWDSNTDSGIFGAGTTLTVL
modifications: mouse constant regions
B2: #7-34: chicken-mouse chimeric anti-FSTL1 antibody clone; variable regions SEQ ID NO: 787 (light), 789 (heavy) (antibody, V domains shown)
VH: AVTLDESGGGLQTPGGGLSLVCKASGFTFSSVTMQWVRQAPGKGLEWVASICSGSSTYYGPAVKGRATISRDNGQNTVRLQLNNLRAEDTATYYCAKIVGRGRWSCTSAAYNIDAWGHGTEVIVSS
VL: B1 VL with I11N, R33K, D47N, D76E, I80V, W86Y, D87E, S88G, N89S
modifications: mouse constant regions
B3: #5-43: chicken-mouse chimeric anti-FSTL1 antibody clone; variable regions SEQ ID NO: 779 (light), 781 (heavy) (antibody, V domains shown)
VH: AVTLDESGGGLQTPGGGLSLVCKGSGFTFSSFNMFWVRQAPGKGLEWVAGIGKDGGTGYGAAVDGRATISKDSGQSTLRLQLNNLRAEDTGTYYCAKAAGGCSYDWCGAYTGDIDTWGHGTEVIVSS
VL: ASTQPSSVSANPGEAVKITCSGGSGSYYGWYQQKSPGSAPVTVIYNNNQRPSDIPSRFSGSKSGSTATLTITGVQAEDEAVYFCGGYDSSTGHGGIFGAGTTLTVL
modifications: mouse constant regions
B4: #8-1: chicken-mouse chimeric anti-FSTL1 antibody clone; variable regions SEQ ID NO: 791 (light), 793 (heavy) (antibody, V domains shown)
VH: B3 VH with G17A, G56V, T57P, G58K, S73N, L78M, Y94F, A109I, T111A
VL: B3 VL with T91S
modifications: mouse constant regions

Legend:
FSTL1 = biological target: T1, FSTL1; assay: Inhibition of MSC induction by FSTL1 in mouse bone marrow cells, ALCAM- and PDGFRA-positive cells (Example 4); format: cell-based; parameters: purchased R&D Systems, Inc. 1694-FN-050; conditions: FSTL1 50 ng/mL, antibody 10 μg/mL, 11 days, vs control anti-DNP antibody
Description: It is known that when bone marrow cells are stimulated with FSTL1, mesenchymal stem cells (MSCs) having pluripotency or self-proliferative capacity grow (Cancer Research 73: 6185, 2013). Thus, 2×10^7 cells/well of bone marrow cells collected from the thigh bone of a C57BL/6 mouse were suspended in 3 mL/well of RPMI1640 (GIBCO/Thermo Fisher Scientific Inc., Cat. No. C11875500BT) medium containing 2% fetal bovine serum, supplemented with 50 ng/mL (final concentration) of FSTL1 (R&D Systems, Inc. Cat#1694-FN-050) and 10 μg/mL of the anti-FSTL1 antibody (#5-2, #5-3, #5-8, #5-10, #5-43, #6-55, or #7-34) or its isotype mouse IgG (anti-DNP antibody) as a control antibody “Control”, and cultured under stimulation (6-well plate). 11 days thereafter, the number of cells was counted while the cells were stained with a PE-labeled anti-ALCAM antibody (eBioscience, Cat. No. 12-1661-82) and a PE-labeled anti-PDGFRA antibody (eBioscience, Cat#12-1401-81) in order to examine the expression of MSC markers, and the contents of ALCAM-positive cells and PDGFR-positive cells were analyzed by flow cytometry using FACScan (Becton, Dickinson and Company, Code. BECTON-DICKINSON-FACSCAN) to calculate the number of each positive cell per culture.

[1] = system: GFP-positive and Snail-positive B16-F10 tumor cells; assay: In vivo, intratumoral administration, Snail-positive B16-F10 bone metastasis model (Example 17); parameters: species or system mouse; conditions: intratumoral 200 μg/0.1 mL/tumor on day 7; day 14
Text: Three antibodies were comparatively analyzed for their antitumor effects and an immunosuppression-mitigating effect using bone metastasis models in which mouse melanoma cells B16-F10 forced to express Snail were subcutaneously and intravenously transplanted in C57BL/6N mice.
1. Experiment Group (n=5) • 1. No treatment • 2. Control IgG (anti-DNP) • 3. Anti-FSTL1 Clone #6-55 • 4. Anti-FSTL1 Clone #7-34 • 5. Anti-FSTL1 Clone #8-1
• Day 0: transplantation of GFP-positive and Snail-positive B16-F10 tumor cells (5×10^5 cells subcutaneously & 1×10^5 cells intravenously) • Day 7: intratumoral administration of the antibody (200 μg/0.1 mL/tumor) • Day 14: various assays (with a focus on flow cytometry analysis)
• Effects on the growth of subcutaneous tumor (calculation of tumor volume by tumor size measurement): measured 7, 11, and 14 days after tumor implantation (FIG. 41C) • Effects on bone metastasis (GFP-positive tumor cells in bone marrow) (FIG. 41A) • Effects on the expansion of mesenchymal stem cells (CD45-negative cells in bone marrow and in the spleen) (FIGS. 41B and 41D) • Effects on the expansion of immunosuppressive Treg cells (CD4-positive and Foxp3-positive cells in bone marrow or the spleen) (FIG. 41D) • Other immunosuppressive properties (FIG. 41D)
In order to evaluate in vivo antibody activity, antitumor effects and immunosuppression-mitigating effects were comparatively analyzed using bone metastasis models in which mouse melanoma cells ([…]) forced to express Snail were subcutaneously and intravenously transplanted in C57BL/6N mice. […]
It is known that when Snail-positive tumor cells are subcutaneously or intravenously transplanted to mice, the tumor metastasizes preferentially to bone marrow in addition to various organs, and this incurs the expansion of mesenchymal stem cells (MSCs) originating in the bone marrow, thereby systemically and strongly suppressing the induction of antitumor immunity (Cancer Research 73: 6185, 2013). […] The percentage (%) of CD45^− cells in the bone marrow cells was analyzed by flow cytometry. […]

| Molecule | inhibitory activity against the expansion of ALCAM-positive cells and PDGFRA-positive cells by FSTL1 (FSTL1) | bone metastasis (GFP-positive tumor cells in bone marrow) [1] |
| --- | --- | --- |
| B1 | slightly strong tendency of inhibitory activity | suppressed |
| B2 | slightly strong tendency of inhibitory activity | no suppressive effect was seen |
| B3 | slightly strong tendency of inhibitory activity | – |
| B4 | – | suppressed |
